# From US20240279278A1, “NMU RECEPTOR 2 AGONISTS” (Boehringer Ingelheim International GmbH, priority 2023, published 2024)
# T1: human neuromedin U receptor 1 (human, UniProt Q9HB89 24-426)
# T1 sequence (looked up): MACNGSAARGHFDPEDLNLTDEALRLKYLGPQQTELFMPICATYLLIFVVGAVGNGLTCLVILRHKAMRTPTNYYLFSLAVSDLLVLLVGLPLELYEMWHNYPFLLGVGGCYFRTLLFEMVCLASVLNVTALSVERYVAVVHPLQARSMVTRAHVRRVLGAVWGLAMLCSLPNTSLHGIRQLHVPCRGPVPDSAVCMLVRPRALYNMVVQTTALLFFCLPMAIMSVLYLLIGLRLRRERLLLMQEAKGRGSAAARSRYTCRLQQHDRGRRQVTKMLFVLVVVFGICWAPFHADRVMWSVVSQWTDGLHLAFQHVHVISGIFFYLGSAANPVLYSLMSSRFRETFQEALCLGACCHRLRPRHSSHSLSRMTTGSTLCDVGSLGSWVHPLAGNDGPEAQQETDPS
# B1: C20DA-gGlu3-Sar15-AEPipAc-Tyr-Phe-NMeLeu-Nle-Dbu-Pro-Arg-Gly-NH2 (peptide)
# peptide: EEEXXXXXXXXXXXXXXXXYFLXXPRG
# HELM: PEPTIDE1{[O=C(O)CCCCCCCCCCCCCCCCCCC(=O)[*:2]].[gGlu].[gGlu].[gGlu].[Sar].[Sar].[Sar].[Sar].[Sar].[Sar].[Sar].[Sar].[Sar].[Sar].[Sar].[Sar].[Sar].[Sar].[Sar].[O=C(CN1CCN(CCN[*:1])CC1)[*:2]].Y.F.[meL].[Nle].[Dab].P.R.G.[am]}$$$$V2.0
# SMILES: CCCC[C@H](NC(=O)[C@H](CC(C)C)N(C)C(=O)[C@H](Cc1ccccc1)NC(=O)[C@H](Cc1ccc(O)cc1)NC(=O)CN1CCN(CCNC(=O)CN(C)C(=O)CN(C)C(=O)CN(C)C(=O)CN(C)C(=O)CN(C)C(=O)CN(C)C(=O)CN(C)C(=O)CN(C)C(=O)CN(C)C(=O)CN(C)C(=O)CN(C)C(=O)CN(C)C(=O)CN(C)C(=O)CN(C)C(=O)CN(C)C(=O)CC[C@H](NC(=O)CC[C@H](NC(=O)CC[C@H](NC(=O)CCCCCCCCCCCCCCCCCCC(=O)O)C(=O)O)C(=O)O)C(=O)O)CC1)C(=O)N[C@@H](CCN)C(=O)N1CCC[C@H]1C(=O)N[C@@H](CCCNC(=N)N)C(=O)NCC(N)=O
# B2: C20DA-gGlu3-Sar15-AEPipAc-Tyr-Phe-NMeLeu-Nle-Orn-Pro-Arg-Gly-NH2 (peptide)
# peptide: EEEXXXXXXXXXXXXXXXXYFLXXPRG
# HELM: PEPTIDE1{[O=C(O)CCCCCCCCCCCCCCCCCCC(=O)[*:2]].[gGlu].[gGlu].[gGlu].[Sar].[Sar].[Sar].[Sar].[Sar].[Sar].[Sar].[Sar].[Sar].[Sar].[Sar].[Sar].[Sar].[Sar].[Sar].[O=C(CN1CCN(CCN[*:1])CC1)[*:2]].Y.F.[meL].[Nle].[Orn].P.R.G.[am]}$$$$V2.0
# SMILES: CCCC[C@H](NC(=O)[C@H](CC(C)C)N(C)C(=O)[C@H](Cc1ccccc1)NC(=O)[C@H](Cc1ccc(O)cc1)NC(=O)CN1CCN(CCNC(=O)CN(C)C(=O)CN(C)C(=O)CN(C)C(=O)CN(C)C(=O)CN(C)C(=O)CN(C)C(=O)CN(C)C(=O)CN(C)C(=O)CN(C)C(=O)CN(C)C(=O)CN(C)C(=O)CN(C)C(=O)CN(C)C(=O)CN(C)C(=O)CN(C)C(=O)CC[C@H](NC(=O)CC[C@H](NC(=O)CC[C@H](NC(=O)CCCCCCCCCCCCCCCCCCC(=O)O)C(=O)O)C(=O)O)C(=O)O)CC1)C(=O)N[C@@H](CCCN)C(=O)N1CCC[C@H]1C(=O)N[C@@H](CCCNC(=N)N)C(=O)NCC(N)=O
# B3: C18DA-gGlu3-Sar12-AEPipAc-Tyr-Phe-NMeLeu-Nle-Dbu-NMeAla-Arg-Gly-NH2 (peptide)
# peptide: EEEXXXXXXXXXXXXXYFLXXARG
# HELM: PEPTIDE1{[O=C(O)CCCCCCCCCCCCCCCCC(=O)[*:2]].[gGlu].[gGlu].[gGlu].[Sar].[Sar].[Sar].[Sar].[Sar].[Sar].[Sar].[Sar].[Sar].[Sar].[Sar].[Sar].[O=C(CN1CCN(CCN[*:1])CC1)[*:2]].Y.F.[meL].[Nle].[Dab].[meA].R.G.[am]}$$$$V2.0
# SMILES: CCCC[C@H](NC(=O)[C@H](CC(C)C)N(C)C(=O)[C@H](Cc1ccccc1)NC(=O)[C@H](Cc1ccc(O)cc1)NC(=O)CN1CCN(CCNC(=O)CN(C)C(=O)CN(C)C(=O)CN(C)C(=O)CN(C)C(=O)CN(C)C(=O)CN(C)C(=O)CN(C)C(=O)CN(C)C(=O)CN(C)C(=O)CN(C)C(=O)CN(C)C(=O)CN(C)C(=O)CC[C@H](NC(=O)CC[C@H](NC(=O)CC[C@H](NC(=O)CCCCCCCCCCCCCCCCC(=O)O)C(=O)O)C(=O)O)C(=O)O)CC1)C(=O)N[C@@H](CCN)C(=O)N(C)[C@@H](C)C(=O)N[C@@H](CCCNC(=N)N)C(=O)NCC(N)=O
# Target: T1, human neuromedin U receptor 1
# Test: cell-based or functional assay
row,EC50 (hNMUR1) buffer [µM],Binder
1,1.5,B1
2,0.89,B2
3,> 1,B3
